This note sets out measurements from IntAct's records for PubMed 20956536.

First the molecules themselves.
B1: Coiled-coil domain-containing protein 141 (Homo sapiens), Q6ZP82-1 (parent)
chain: MSSQGSPSVALSTTTVSSVAVQAGDSKIVIAVIKCGKWVQLQLAESQPNLLEIGSSQDETKKLLHDHELLLAKLKALEDRVWELLQEADKTAEENKDQSQVYDAMAETLGEAWAALVSMLERRTELLRLTSEFFENALEFAIKIDQAEDFLQNTHEFESAESLKSLLQLHEHHTKELLERSLALLNKSQQLTDFIEKFKCEGPNVNPELTQGAHSSCLKVDRLLELLQDRRRQLDKYLKQQWQELSQVLQICQWDQQENQVTCWFQKTIRNLQEQSLGSSLSDNEDRIHKQEELIIKAKEWNSAVEKLKSEALRILLSKDYVEKEHLQLSHQKLSQLQEEFGQLMVERNTWLKKANEFFNSANKAFDVLGRVEAYLKLLKSEGLSLAVLAVRHEELHRKIKDCTTDALQKGQTLISQVDSCSSQVSGIHEMMGCIKRRVDHLTEQCSAHKEYALKKQQLTASVEGYLRKVEMSIQKISPVLSNAMDVGSTRSESEKILNKYLELDIQAKETSHELEAAAKTMMEKNEFVSDEMVSLSSKARWLAEELNLFGQSIDYRSQVLQTYVAFLKSSEEVEMQFQSLKEFYETEIPQKEQDDAKAKHCSDSAEKQWQLFLKKSFITQDLGLEFLNLINMAKENEILDVKNEVYLMKNTMENQKAEREELSLLRLAWQLKATESKPGKQQWAAFKEQLKKTSHNLKLLQEALMPVSALDLGGSLQFILDLRQKWNDMKPQFQQLNDEVQYIMKESEELTGRGAPVKEKSQQLKDLIHFHQKQKERIQDYEDILYKVVQFHQVKEELGRLIKSRELEFVEQPKELGDAHDVQIHLRCSQEKQARVDHLHRLALSLGVDIISSVQRPHCSNVSAKNLQQQLELLEEDSMKWRAKAEEYGRTLSRSVEYCAMRDEINELKDSFKDIKKKFNNLKFNYTKKNEKSRNLKALKYQIQQVDMYAEKMQALKRKMEKVSNKTSDSFLNYPSDKVNVLLEVMKDLQKHVDDFDKVVTDYKKNLDLTEHFQEVIEECHFWYEDASATVVRVGKYSTECKTKEAVKILHQQFNKFIAPSVPQQEERIQEATDLAQHLYGLEEGQKYIEKIVTKHKEVLESVTELCESLTELEEKLKQGDVLKMNPNLEDFHYDYIDLLKEPAKNKQTIFNEERNKGQVQVADLLGINGTGEERLPQDLKVSTDKEGGVQDLLLPEDMLSGEEYECVSPDDISLPPLPGSPESPLAPSDMEVEEPVSSSLSLHISSYGVQAGTSSPGDAQESVLPPPVAFADACNDKRETFSSHFERPYLQFKAEPPLTSRGFVEKSTALHRISAEHPESMMSEVHERALQQHPQAQGGLLETREKMHADNNFTKTQDRLHASSDAFSGLRFQSGTSRGYQRQMVPREEIKSTSAKSSVVSLADQAPNFSRLLSNVTVMEGSPVTLEVEVTGFPEPTLTWWVAYNDKP
partner: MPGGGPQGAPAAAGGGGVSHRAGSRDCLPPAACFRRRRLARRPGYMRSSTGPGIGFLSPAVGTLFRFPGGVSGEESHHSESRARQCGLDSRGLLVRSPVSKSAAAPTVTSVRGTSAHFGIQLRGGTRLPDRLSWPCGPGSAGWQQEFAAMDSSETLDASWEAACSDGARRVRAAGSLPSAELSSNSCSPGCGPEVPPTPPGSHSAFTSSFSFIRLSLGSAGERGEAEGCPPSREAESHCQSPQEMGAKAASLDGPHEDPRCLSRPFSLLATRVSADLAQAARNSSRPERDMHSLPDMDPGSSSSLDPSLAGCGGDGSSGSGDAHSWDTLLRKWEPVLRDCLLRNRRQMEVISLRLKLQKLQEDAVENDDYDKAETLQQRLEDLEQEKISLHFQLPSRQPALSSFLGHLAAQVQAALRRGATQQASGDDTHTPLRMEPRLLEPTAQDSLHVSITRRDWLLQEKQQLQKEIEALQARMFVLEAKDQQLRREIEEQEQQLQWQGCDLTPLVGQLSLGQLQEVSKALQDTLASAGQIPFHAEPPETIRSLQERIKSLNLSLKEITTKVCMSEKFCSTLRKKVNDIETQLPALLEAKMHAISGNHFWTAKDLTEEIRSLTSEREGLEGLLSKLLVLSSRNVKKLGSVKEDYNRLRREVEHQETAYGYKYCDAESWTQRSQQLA
B2: Coiled-coil domain-containing protein 141 (Homo sapiens), Q6ZP82-1 (parent)
chain: B1 chain
partner: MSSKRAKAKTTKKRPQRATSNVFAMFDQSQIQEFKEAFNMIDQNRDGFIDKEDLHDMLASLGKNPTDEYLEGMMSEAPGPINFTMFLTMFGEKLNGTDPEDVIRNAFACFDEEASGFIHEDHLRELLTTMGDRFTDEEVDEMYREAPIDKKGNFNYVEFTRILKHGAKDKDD
B3: Myosin regulatory light polypeptide 9 (Homo sapiens), P24844 (parent)
chain: B2 partner

The variants in one experiment derive from B1. Conditions: with DISC1, Q9NRI5-3.
For the variant R828W, the “effect of a mutation on the interaction” value is listed as “with no effect”.

The variants in the next experiment derive from B2. Conditions: with myl9_human MYL9, P24844.
In the case of R828W, the “effect of a mutation on the interaction” value is on record as “disrupting interaction strength”.

In the next experiment the parent is B3. The following applies: with cc141_mouse Ccdc141, E9Q8Q6.
Chain of cc141_mouse Ccdc141, E9Q8Q6 (E9Q8Q6 whole entry): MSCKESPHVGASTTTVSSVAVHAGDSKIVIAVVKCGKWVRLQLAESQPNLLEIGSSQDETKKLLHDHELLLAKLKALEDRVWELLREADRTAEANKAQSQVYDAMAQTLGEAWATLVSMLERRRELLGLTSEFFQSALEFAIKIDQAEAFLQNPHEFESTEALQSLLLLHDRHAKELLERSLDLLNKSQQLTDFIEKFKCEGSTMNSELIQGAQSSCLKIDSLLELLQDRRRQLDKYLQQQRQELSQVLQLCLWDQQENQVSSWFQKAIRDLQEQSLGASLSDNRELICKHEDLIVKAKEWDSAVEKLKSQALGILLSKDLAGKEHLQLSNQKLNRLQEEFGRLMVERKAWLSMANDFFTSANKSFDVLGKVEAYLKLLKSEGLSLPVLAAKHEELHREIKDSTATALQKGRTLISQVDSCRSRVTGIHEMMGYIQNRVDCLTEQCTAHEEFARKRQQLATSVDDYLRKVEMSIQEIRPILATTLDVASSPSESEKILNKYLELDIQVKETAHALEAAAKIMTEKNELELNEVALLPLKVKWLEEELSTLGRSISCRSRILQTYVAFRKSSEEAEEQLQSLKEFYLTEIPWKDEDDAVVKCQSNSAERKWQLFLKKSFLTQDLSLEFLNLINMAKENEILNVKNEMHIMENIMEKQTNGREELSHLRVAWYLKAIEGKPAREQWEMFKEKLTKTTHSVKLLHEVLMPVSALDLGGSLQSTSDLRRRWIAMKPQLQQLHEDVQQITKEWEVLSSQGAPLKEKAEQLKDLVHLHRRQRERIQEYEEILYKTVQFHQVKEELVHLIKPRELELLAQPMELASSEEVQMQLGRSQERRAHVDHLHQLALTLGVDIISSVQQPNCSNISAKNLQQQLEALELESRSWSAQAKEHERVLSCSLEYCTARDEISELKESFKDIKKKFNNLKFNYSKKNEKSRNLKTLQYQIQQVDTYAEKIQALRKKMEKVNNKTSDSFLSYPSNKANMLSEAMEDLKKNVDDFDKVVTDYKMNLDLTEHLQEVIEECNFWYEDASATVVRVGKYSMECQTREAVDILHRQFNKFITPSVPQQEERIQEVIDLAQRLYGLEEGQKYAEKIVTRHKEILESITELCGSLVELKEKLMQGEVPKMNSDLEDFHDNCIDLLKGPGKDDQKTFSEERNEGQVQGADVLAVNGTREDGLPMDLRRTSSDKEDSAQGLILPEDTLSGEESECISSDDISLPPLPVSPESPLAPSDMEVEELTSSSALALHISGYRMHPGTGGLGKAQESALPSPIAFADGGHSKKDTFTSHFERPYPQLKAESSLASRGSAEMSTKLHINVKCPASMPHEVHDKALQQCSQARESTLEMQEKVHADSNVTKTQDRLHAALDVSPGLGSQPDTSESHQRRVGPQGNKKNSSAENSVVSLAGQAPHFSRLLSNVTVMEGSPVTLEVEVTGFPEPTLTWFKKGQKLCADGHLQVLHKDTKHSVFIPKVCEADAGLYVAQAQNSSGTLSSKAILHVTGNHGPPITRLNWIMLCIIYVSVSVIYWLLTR
On to MSSKRAKAKTTKKRPQRADDNVFAMFDQSQIQEFKEAFNMIDQNRDGFIDKEDLHDMLASLGKNPTDEYLEGMMSEAPGPINFTMFLTMFGEKLNGTDPEDVIRNAFACFDEEASGFIHEDHLRELLTTMGDRFTDEEVDEMYREAPIDKKGNFNYVEFTRILKHGAKDKDD [T19D;S20D], for which the “effect of a mutation on the interaction” value was “increasing interaction strength”. As for MSSKRAKAKTTKKRPQRAAANVFAMFDQSQIQEFKEAFNMIDQNRDGFIDKEDLHDMLASLGKNPTDEYLEGMMSEAPGPINFTMFLTMFGEKLNGTDPEDVIRNAFACFDEEASGFIHEDHLRELLTTMGDRFTDEEVDEMYREAPIDKKGNFNYVEFTRILKHGAKDKDD [T19A;S20A], the “effect of a mutation on the interaction” value was “disrupting interaction strength”.
